These results are taken from paper PMC6318265, “Structure of BAI1/ELMO2 complex reveals an action mechanism of adhesion GPCRs via ELMO family scaffolds” (Nature Communications, 2019).

Experiment [1] has as its target T1, ELMO2-RAE (sample of the ITC titration) (human, UniProt Q96JJ3 1-520).
T1 construct: ELMO2, GenBank AF398886.1, aa 1-520 (RBD-ARR-ELMO tandem); Tag removal is described only for crystallography; also called Trx-His6-ELMO2-RAE; source: E. coli BL21 (DE3), purified (Ni-NTA, SEC)
T1 sequence (looked up): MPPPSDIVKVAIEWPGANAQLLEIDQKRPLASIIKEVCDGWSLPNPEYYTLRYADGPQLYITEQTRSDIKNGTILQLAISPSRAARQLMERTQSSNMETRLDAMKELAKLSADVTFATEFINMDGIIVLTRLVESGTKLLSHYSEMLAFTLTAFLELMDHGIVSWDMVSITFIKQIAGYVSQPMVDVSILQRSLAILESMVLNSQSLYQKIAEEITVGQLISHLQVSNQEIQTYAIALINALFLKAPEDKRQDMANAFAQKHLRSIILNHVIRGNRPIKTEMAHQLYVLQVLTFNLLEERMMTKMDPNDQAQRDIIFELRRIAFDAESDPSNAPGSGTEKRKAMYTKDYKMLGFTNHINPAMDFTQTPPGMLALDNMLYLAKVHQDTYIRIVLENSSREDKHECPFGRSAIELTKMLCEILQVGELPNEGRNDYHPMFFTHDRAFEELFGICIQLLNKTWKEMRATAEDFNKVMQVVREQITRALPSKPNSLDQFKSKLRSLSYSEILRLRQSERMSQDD
Briefly: ITC; MicroCal iTC200, 25 °C; 50 mM Tris pH 8.0, 100 mM NaCl, 1 mM EDTA, 1 mM DTT; BAI1-EBD (~500 µM) in the syringe, ELMO2-RAE (~40 µM) in the cell. The settings on record: both partners purified.

The target of experiment [2] is T2, ELMO2-RAE (tag removed, for crystallography) (human, UniProt Q96JJ3 1-520).
T2 construct: ELMO2, GenBank AF398886.1, aa 1-520 (RBD aa 1-80, ARR aa 81-301, ELMO domain aa 306-513); also called RAE tandem of ELMO2; source: E. coli BL21 (DE3), purified (Ni-NTA, SEC, 3C protease cleavage, SEC)
T2 sequence (looked up): T1 sequence (looked up)
Briefly: crystal structure; ELMO2-RAE mixed with synthetic BAI1-EBD peptide at 1:2; 0.3 M ammonium fluoride, 18% PEG3,350, 16 °C; 1.7 Å, molecular replacement. The settings on record: both partners purified.

B1: BAI1-EBD (sample of the ITC titration) (domain or fragment, mouse, UniProt Q3UHD1-1 1467-1502, looked up)
chain: SLERRKSRYAELDFEKIMHTRKRHQDMFQDLNRKLQ
notes: the methods speak of 'BAI1 proteins'
Turning to B1, in experiment [1], the Kd (as a rule, the constant that tells how readily two partners part at equilibrium) is approximately 3.36 µM and the stoichiometry N (in general, a count of units in the complex or per binding partner) turned out to be 1.

B2: synthetic BAI1-EBD peptide (peptide, UniProt Q3UHD1-1 1467-1502, looked up)
peptide: B1 chain
notes: aa 1471-1495 are defined in the electron density; source: synthetic peptide (ChinaPeptide Co.,Ltd.)
Regarding B2, the “stoichiometry N” value in experiment [2] came out at 1.
